According to patent US20170008962A1 (Dana-Farber, published 2017):
Values belong to the binder of their own block, whether it stands above or below them.

How the values were obtained:
[1] = target: T1, recombinant human angiopoietin-1 (human, UniProt Q15389 20-498); assay: ELISA, protein coated at 4 µg/ml, antibody at 20, 4, 0.8 and 0.16 µg/ml, europium conjugated anti-human IgG
T1 construct: also called Ang-1
T1 sequence (looked up): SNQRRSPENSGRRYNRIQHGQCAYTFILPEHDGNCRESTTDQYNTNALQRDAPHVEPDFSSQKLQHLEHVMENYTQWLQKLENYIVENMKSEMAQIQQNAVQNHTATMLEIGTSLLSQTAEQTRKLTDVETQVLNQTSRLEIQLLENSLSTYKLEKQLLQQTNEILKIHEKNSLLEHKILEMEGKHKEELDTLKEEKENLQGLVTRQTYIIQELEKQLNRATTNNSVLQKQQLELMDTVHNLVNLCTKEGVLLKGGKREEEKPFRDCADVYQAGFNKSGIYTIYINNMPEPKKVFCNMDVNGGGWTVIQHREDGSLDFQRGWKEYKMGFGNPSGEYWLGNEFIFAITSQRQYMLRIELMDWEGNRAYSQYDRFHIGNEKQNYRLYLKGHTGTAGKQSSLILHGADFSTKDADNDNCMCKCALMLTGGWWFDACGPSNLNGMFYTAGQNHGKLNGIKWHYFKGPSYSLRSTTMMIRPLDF

[2] = target: T2, recombinant human angiopoietin-4 (human, UniProt Q9Y264 25-503); assay: as above
T2 construct: also called Ang-4; Ang4
T2 sequence (looked up): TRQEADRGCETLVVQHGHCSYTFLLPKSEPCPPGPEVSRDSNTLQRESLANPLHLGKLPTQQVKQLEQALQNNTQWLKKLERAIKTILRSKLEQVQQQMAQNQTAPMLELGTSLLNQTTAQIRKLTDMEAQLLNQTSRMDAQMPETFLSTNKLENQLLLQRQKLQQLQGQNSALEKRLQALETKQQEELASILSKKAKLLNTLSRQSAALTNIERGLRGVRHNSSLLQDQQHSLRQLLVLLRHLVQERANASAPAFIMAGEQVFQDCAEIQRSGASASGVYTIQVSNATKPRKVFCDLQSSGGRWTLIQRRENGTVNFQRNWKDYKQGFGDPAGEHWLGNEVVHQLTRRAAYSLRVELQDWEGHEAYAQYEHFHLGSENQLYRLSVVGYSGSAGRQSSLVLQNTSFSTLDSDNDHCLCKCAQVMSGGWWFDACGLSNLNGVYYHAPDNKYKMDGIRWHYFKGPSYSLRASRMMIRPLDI

[3] = target: T3, recombinant human angiopoietin-2 (human, UniProt O15123 19-496); assay: as above
T3 construct: also called Ang-2
T3 sequence (looked up): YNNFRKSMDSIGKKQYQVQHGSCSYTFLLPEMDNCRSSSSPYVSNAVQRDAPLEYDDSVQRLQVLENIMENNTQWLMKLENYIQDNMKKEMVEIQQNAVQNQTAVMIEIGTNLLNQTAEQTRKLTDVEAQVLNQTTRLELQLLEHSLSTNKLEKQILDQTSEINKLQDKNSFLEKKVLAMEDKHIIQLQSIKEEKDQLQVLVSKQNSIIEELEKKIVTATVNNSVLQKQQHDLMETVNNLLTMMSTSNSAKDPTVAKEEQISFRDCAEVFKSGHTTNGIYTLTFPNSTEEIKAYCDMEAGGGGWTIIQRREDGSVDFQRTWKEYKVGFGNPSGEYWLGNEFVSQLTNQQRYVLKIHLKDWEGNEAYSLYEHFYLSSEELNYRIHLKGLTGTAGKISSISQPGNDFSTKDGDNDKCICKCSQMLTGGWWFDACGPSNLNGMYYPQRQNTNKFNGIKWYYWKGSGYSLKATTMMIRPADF

[4] = target: T1, recombinant human angiopoietin-1; assay: ELISA, angiopoietin coated at 4 µg/mL, antibody 20 µg/mL-0.16 µg/mL, anti-human IgG-Europium
[5] = target: T2, recombinant human angiopoietin-4; assay: as above
[6] = target: T3, recombinant human angiopoietin-2; assay: as above
[7] = target: T4, Ang-like-3 (human, UniProt Q9Y5C1 17-460); assay: ELISA, protein coated on plate, anti-human IgG-Europium
T4 sequence (looked up): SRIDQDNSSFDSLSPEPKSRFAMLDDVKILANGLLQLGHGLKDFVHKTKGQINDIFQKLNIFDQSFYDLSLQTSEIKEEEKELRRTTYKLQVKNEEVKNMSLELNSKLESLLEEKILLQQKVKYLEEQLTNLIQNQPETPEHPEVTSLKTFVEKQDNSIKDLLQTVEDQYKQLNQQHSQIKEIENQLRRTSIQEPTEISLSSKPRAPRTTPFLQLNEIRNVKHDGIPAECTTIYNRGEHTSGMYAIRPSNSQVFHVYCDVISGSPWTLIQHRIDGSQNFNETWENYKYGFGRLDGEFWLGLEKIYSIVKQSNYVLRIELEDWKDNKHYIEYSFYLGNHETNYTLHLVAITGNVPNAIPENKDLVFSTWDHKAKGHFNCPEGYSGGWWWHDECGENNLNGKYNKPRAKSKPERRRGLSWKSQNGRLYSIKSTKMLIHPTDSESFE

[8] = target: T5, soluble, recombinant MICB with a single BirA biotinylation site (human, UniProt Q29980 23-309); assay: cytometric bead assay, biotinylated protein on streptavidin beads, FITC anti-human IgG
T5 sequence (looked up): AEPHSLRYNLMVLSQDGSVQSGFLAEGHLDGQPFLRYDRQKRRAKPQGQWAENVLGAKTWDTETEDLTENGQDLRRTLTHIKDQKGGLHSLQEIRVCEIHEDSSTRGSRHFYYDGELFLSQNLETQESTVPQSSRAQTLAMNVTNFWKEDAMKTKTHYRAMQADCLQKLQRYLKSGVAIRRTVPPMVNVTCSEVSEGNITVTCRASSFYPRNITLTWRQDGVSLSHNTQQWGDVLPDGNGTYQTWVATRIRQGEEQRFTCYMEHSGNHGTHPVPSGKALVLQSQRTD

B1: anti-Ang2 Ab6 (antibody ID-10 of Table 1, anti-angiopoietin-2 antibody) (antibody, V domains shown)
VH: EVQLVESGGGLIQPGGSLRLSCAASGFLISSYFMSWVRQAPGKGPEWVSVIYSDGSTYYVDSVKGRFTISTDNSKNTLYLQMNSLRAEDTARYYCATRHLNYDGDHWGQGTLVTVSS
VL: DVVMTQSPLSLPVTLGQPASISCRSSQSLVHSDGNTYLNWFHQRPGQSPRRLIYKVSKRDSGVPDRFSGSGSGSDFTLKISRVEAEDVGIYYCMQGTHWPTFGQGTKVEIKR
notes: also called anti-Ang6 Ab2
binding result [1]: binds
binding result [2]: binds
binding result [3]: binds

B3: antibody ID 5 (anti-angiopoietin-2 antibody) (antibody, V domains shown)
VH: EVQLVESGGGLIQPGGSLRLSCATSGFTFRTSSMSWVRRAPGKGLEWVSAIGAESHDTHYTDSAEGRFTISKDYSKNTVYLQMNGLRVDDTAIYYCAHHYYYGSRQKPKDWGDAFDMWGQGTMVSVSS
VL: DIQMTQSPSSVSASVGDRVTITCRASQDISTWLTWYQQRAGKAPNLLIYGASTLEDGVPSRFSGSGSGTDFTLTIDSLQPDDFATYYCQQSHSFPYTFGQGTQLGIS
binding result [4]: binds
binding result [5]: binds
binding result [6]: binds
binding result [7]: no binding (tested: 20 µg/mL-0.16 µg/mL)

B4: antibody ID 3 (anti-angiopoietin-2 antibody) (antibody, V domains shown)
VH: EVQLVESGGGLVQPGGSLRLSCAASGFTFSNNWMHWVRQAPGKGLEWISEIRSDGNFTRYADSMKGRFTISRDNAKSTLYLQMNSLRVEDTGLYYCARDYPYSIDYWGQGTLVTVSS
VL: DIVMTQTPLSSPVTLGQPASISCTSSQSLVHSNGNTYLSWLQQRPGQPPRLLIYEISKRVSGVPDRFSGSGAGTDFTLKISRVEAEDVGVYYCMQGKQLRTFGQGTKLEIK
binding result [4]: binds
binding result [5]: binds
binding result [6]: binds
binding result [7]: no binding (tested: 20 µg/mL-0.16 µg/mL)

B6: CM24002 Ab2 (anti-MICA antibody ID-6 of Table 1) (antibody, V domains shown)
VH: QVQLQESGPGLVEPSGTLSLTCTVSGGSISRSNWWSWVRQPPGEGLEWIGEIHHIGRSSYNPSLKSRVTMSVDKSQNQFSLRLTSVTAADTAVYYCAKNGYYAMDVWGQGTTVTVSS
VL: EIVLTQSPGTLSLSPGERATLSCRASQSVSSDFLAWYQQKPGQAPRLLIYATSFRATGISDRFSGSGSGTDFSLTINRLEPEDFAVYYCQHYRSSPPWYTFAQGTKLDMRRTVAAPSV
binding result [8]: binds

B8: antibody ID 2 (anti-angiopoietin-2 antibody) (antibody, V domains shown)
VH: EVQLVESGGGLVQPGGSLRLSCAASGFTFSSYAMSWVRQAPGKGLEWVSGIYWSGGSTYYADSVKGRFTISRDISKNTLYLQMNSLRADDTAVYYCARGDYYGSGAHFDYWGQGTLVTVSS
VL: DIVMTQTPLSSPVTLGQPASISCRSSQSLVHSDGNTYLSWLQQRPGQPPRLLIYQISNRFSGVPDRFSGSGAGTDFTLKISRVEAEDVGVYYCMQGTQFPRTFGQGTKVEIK
binding result [4]: binds
binding result [5]: binds
binding result [6]: binds
binding result [7]: no binding (tested: 20 µg/mL-0.16 µg/mL)

Next, values leading:

binding result [4]: binds
binding result [5]: binds
binding result [6]: binds
binding result [7]: no binding (tested: 20 µg/mL-0.16 µg/mL)
B2: antibody ID 4 (anti-angiopoietin-2 antibody) (antibody, V domains shown)
VH: EVQLVESGGGLVQPGGSVRLSCAASGFILSNFAMSWVRQAPGKGLDWVSGNFGGRENTYYADSVKGRFTISRDSSKSTLYLQMNNLRAEDTAVYYCARGDYHGSGAHFDYWGQGILVTVSS
VL: DIVMTQSPLSSPVILGQPASISCRSSQSLLHSDGNTYLSWLHQRPGQPPRLLIYQISNRFSGVPDRFSGSGTGTDFTLKISRVEAEDAGIYYCMQGTEFPRTFGQGTKVEIK

binding result [8]: binds
B5: CM24002 Ab4 (anti-MICA antibody ID-7 of Table 1) (antibody, V domains shown)
VH: QVQLQESGPGLVKPSGTLSLTCAVSGASITNGAWWSWVRQPPGKGLEWIGEIYLNGNTNSNPSLKSRVIISVDKSKNHFSLTLNSVTAADTAVYYCAKNAAYNLEFWGQGALVTVSS
VL: EIVLTQSPGTLSLSPGERATLSCRASQTVSSPYVAWYQQKRGQAPRLLIYGASTRATGIPDRFSGSGSGTDFTLTISRLEPEDFAVYYCQQYDRSYYYTFGQGTKLEIK

binding result [8]: binds
B7: CM33322 Ab11 (anti-MICA antibody ID-8 of Table 1) (antibody, V domains shown)
VH: QVQLQESGPGLVKPSENLSLTCTVSDASMSDYHWSWIRQAAGKGLEWIGRMYSTGSPYYKPSLKGRVTMSIDTSKNQFSLKLASVTAADTAIYYCASGQHIGGWVPPDFWGQGTLVTVSS
VL: DIVMTQTPLSSPVTLGQPASISCRSSEGLVYSDGDTYLSWFHQRPGQPPRLLIYKISNRFSGVPDRFSGSGAGTDFTLKISRVEAEDVGVYYCMQATHFPWTFGQGTKVEVKR
